Legend:
[1] = target: mycobacterial membrane protein large 5 (MmpL5) transporter, M. smegmatis (M. smegmatis) (UniProt A0QS80); assay: cryo-EM structure; particle class 2 (tripartite trimeric AcpM-MmpL5-MmpS5 complex) from the same LMNG-solubilized crude membrane sample; Build and Retrieve processing; 2.81 Å
[2] = target: mycobacterial membrane protein large 5 (MmpL5) transporter, M. smegmatis (M. smegmatis) (UniProt A0QS80); assay: cryo-EM structure; particle class 3 (dipartite trimeric AcpM-MmpL5 complex) from the same LMNG-solubilized crude membrane sample; Build and Retrieve processing; 3.37 Å
[3] = target: T1, mycobacterial membrane protein large 5 (MmpL5) transporter, M. smegmatis (M. smegmatis, UniProt A0QS80 1-967); assay: cryo-EM structure; particle class 1 (2D arrays of monomeric AcpM-MmpL5 units) from LMNG-solubilized crude M. smegmatis membranes enriched by sucrose cushion; Build and Retrieve processing; 3.35 Å; conditions: partners not purified
T1 construct: MmpL5 of Mycobacterium smegmatis, gene MSMEG_1382 cloned into pBUN250; 12 TM helices, periplasmic subdomains PD1-PD3 (PD3 = residues 499-684); Seen as a monomer (in 2D arrays) and as a homotrimer in different particle classes of one sample; Residues 493-702 are not modelled in 9MX0, residues 499-655 not in 9MW0; also called MSMEG_1382; source: M. smegmatis MC2-155, coexpressed with MmpS5 from …
T1 sequence (looked up): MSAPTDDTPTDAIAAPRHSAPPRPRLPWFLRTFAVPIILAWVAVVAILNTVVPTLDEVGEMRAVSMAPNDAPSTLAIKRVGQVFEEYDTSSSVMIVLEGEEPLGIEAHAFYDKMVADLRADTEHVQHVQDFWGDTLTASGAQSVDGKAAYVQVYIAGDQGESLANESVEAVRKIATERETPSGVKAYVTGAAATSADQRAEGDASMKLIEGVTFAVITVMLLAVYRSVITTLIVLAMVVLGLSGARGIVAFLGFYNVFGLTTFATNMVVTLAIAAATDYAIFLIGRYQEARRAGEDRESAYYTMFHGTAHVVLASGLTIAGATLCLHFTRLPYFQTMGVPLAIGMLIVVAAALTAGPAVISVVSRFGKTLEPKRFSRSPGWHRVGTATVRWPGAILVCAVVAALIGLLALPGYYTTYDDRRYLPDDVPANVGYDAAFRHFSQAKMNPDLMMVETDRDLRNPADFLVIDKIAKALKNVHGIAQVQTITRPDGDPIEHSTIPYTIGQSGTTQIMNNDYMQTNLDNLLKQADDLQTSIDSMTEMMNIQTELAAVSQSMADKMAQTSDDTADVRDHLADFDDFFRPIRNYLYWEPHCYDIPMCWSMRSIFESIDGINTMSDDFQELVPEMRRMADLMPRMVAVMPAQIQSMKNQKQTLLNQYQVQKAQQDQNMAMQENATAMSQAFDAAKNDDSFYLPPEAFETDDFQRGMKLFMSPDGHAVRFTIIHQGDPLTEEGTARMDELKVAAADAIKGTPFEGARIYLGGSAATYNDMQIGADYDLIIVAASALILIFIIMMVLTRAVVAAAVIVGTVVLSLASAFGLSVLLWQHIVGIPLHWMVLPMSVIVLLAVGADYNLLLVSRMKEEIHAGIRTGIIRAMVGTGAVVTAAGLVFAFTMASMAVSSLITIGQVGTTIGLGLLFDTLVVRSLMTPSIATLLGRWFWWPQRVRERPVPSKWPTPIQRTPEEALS

[4] = target: T1, mycobacterial membrane protein large 5 …; assay: cryo-EM structure; particle class 2 (tripartite trimeric AcpM-MmpL5-MmpS5 complex) from the same LMNG-solubilized crude membrane sample; Build and Retrieve processing; 2.81 Å; conditions: partners not purified

Molecule: mycobacterial membrane protein large 5 (MmpL5) transporter, M. smegmatis (from UniProt A0QS80 1-967) (natural protein)
- stoichiometry N [1]: 3
- stoichiometry N [2]: 3

Molecule: MmpS5 adaptor protein, M. smegmatis (natural protein)
- stoichiometry N (MmpS5:MmpL5 (3:3)) [1]: 1

B1: meromycolate extension acyl carrier protein M (AcpM), M. smegmatis (natural protein, UniProt A0R0B3 1-99, looked up)
chain: MAATQEEIIAGLAEIIEEVTGIEPSEVTPEKSFVDDLDIDSLSMVEIAVQTEDKYGVKIPDEDLAGLRTVGDVVAYIQKLEEENPEAAAALREKFAADQ
notes: AcpM, cytosolic meromycolate extension acyl carrier protein of Mycobacterium smegmatis, not overexpressed; identified in the cryo-EM maps and by proteomics; four-helix bundle, 82 C-alpha atoms compared; Came with MmpL5 from the host cells; source: endogenous, M. smegmatis MC2-155; detergent-solubilized (LMNG) crude membranes, enriched by sucrose cushion centrifugation
- stoichiometry N [3]: 1 AcpM:MmpL5 (1:1)
- stoichiometry N [4]: 1 AcpM:MmpL5 (3:3)

From article PMC12346298, “Structures of MmpL complexes reveal the assembly and mechanism of this family of transporters” (Science Advances, 2025)
